In the supplement of paper PMC10567573:

B1: TOR1AIP2 (parent)
chain: AGQEGEDTLRRRLLAPEAGSHPQQ

Variants of: B1
Assay: protein stability index of a GFP-peptide fusion (GPS, HEK-293T) (PSI 1-6); higher = more stable
Conditions: c terminus: a fixed tail appended
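Further: lentivirally expressed fusions sorted by FACS into six bins by GFP to DsRed ratio, PSI derived from sequencing read proportions per bin multiplied by bin number.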

Question: For AGQEGEDTLRRRLLAPEAGCHPQQ, which protein stability index is on record?
Answer: 1.62

Question: For AGQEGEDTLRRRLLAPEAGAHPQQ, which protein stability index is on record?
Answer: 2.45

Question: Which protein stability index does the source give for AGQEGEDTLRRRLLAPEAGPHPQQ here?
Answer: 2.53

Question: For AGQEGEDTLRRRLLAPEAGQHPQQ, which protein stability index is on record?
Answer: 2.35

Question: With AGQEGEDTLRRRLLAPEAGMHPQQ as the variant, how does the protein stability index read?
Answer: 2.68

Question: Which protein stability index does the source give for AGQEGEDTLRRRLLAPEAGWHPQQ here?
Answer: 2.08

Question: Which protein stability index does the source give for AGQEGEDTLRRRLLAPEAGKHPQQ here?
Answer: 1.97

Question: For AGQEGEDTLRRRLLAPEAGNHPQQ, which protein stability index is on record?
Answer: 2.02

Question: With AGQEGEDTLRRRLLAPEAGDHPQQ as the variant, how does the protein stability index read?
Answer: 3.33

Question: With AGQEGEDTLRRRLLAPEAGGHPQQ as the variant, how does the protein stability index read?
Answer: 2.25

Question: Which protein stability index does the source give for AGQEGEDTLRRRLLAPEAGIHPQQ here?
Answer: 2.08

Question: Which protein stability index does the source give for AGQEGEDTLRRRLLAPEAGRHPQQ here?
Answer: 2.28

Question: With AGQEGEDTLRRRLLAPEAGYHPQQ as the variant, how does the protein stability index read?
Answer: 2.18

Question: With AGQEGEDTLRRRLLAPEAGVHPQQ as the variant, how does the protein stability index read?
Answer: 1.73

Question: Which protein stability index does the source give for AGQEGEDTLRRRLLAPEAGLHPQQ here?
Answer: 2.09

Question: For AGQEGEDTLRRRLLAPEAGEHPQQ, which protein stability index is on record?
Answer: 2.91

Question: With AGQEGEDTLRRRLLAPEAGTHPQQ as the variant, how does the protein stability index read?
Answer: 2.1

Question: For AGQEGEDTLRRRLLAPEAGHHPQQ, which protein stability index is on record?
Answer: 2.1

Question: With AGQEGEDTLRRRLLAPEAGFHPQQ as the variant, how does the protein stability index read?
Answer: 1.73

Question: For AGQEGEDTLRRRLLQPEAGSHPQQ, which protein stability index is on record?
Answer: 4.9

Question: Which protein stability index does the source give for AGQEGEDTLRRRLLLPEAGSHPQQ here?
Answer: 5.02

Question: Which protein stability index does the source give for AGQEGEDTLRRRLLCPEAGSHPQQ here?
Answer: 1.34

Question: With AGQEGEDTLRRRLLTPEAGSHPQQ as the variant, how does the protein stability index read?
Answer: 3.68

Question: For AGQEGEDTLRRRLLSPEAGSHPQQ, which protein stability index is on record?
Answer: 3

Question: For AGQEGEDTLRRRLLPPEAGSHPQQ, which protein stability index is on record?
Answer: 5.46

Question: For AGQEGEDTLRRRLLVPEAGSHPQQ, which protein stability index is on record?
Answer: 5.17

Question: With AGQEGEDTLRRRLLNPEAGSHPQQ as the variant, how does the protein stability index read?
Answer: 4.55

Question: For AGQEGEDTLRRRLLKPEAGSHPQQ, which protein stability index is on record?
Answer: 5.44

Question: Which protein stability index does the source give for AGQEGEDTLRRRLLGPEAGSHPQQ here?
Answer: 4.34

Question: Which protein stability index does the source give for AGQEGEDTLRRRLLIPEAGSHPQQ here?
Answer: 4.48

Question: Which protein stability index does the source give for AGQEGEDTLRRRLLRPEAGSHPQQ here?
Answer: 5.03

Question: With AGQEGEDTLRRRLLWPEAGSHPQQ as the variant, how does the protein stability index read?
Answer: 4.49

Question: Which protein stability index does the source give for AGQEGEDTLRRRLLFPEAGSHPQQ here?
Answer: 4.87

Question: For AGQEGEDTLRRRLLMPEAGSHPQQ, which protein stability index is on record?
Answer: 4.55

Question: Which protein stability index does the source give for AGQEGEDTLRRRLLEPEAGSHPQQ here?
Answer: 5.18

Question: For AGQEGEDTLRRRLLYPEAGSHPQQ, which protein stability index is on record?
Answer: 4.12

Question: With AGQEGEDTLRRRLLHPEAGSHPQQ as the variant, how does the protein stability index read?
Answer: 5.18

Question: For AGQEGEDTLRRRLLDPEAGSHPQQ, which protein stability index is on record?
Answer: 5.39

Question: With AGQEGEDTLRTRLLAPEAGSHPQQ as the variant, how does the protein stability index read?
Answer: 3.98

Question: With AGQEGEDTLRWRLLAPEAGSHPQQ as the variant, how does the protein stability index read?
Answer: 2.12

Question: With AGQEGEDTLRKRLLAPEAGSHPQQ as the variant, how does the protein stability index read?
Answer: 2.81

Question: With AGQEGEDTLRLRLLAPEAGSHPQQ as the variant, how does the protein stability index read?
Answer: 2.85

Question: For AGQEGEDTLRFRLLAPEAGSHPQQ, which protein stability index is on record?
Answer: 2.02

Question: For AGQEGEDTLRERLLAPEAGSHPQQ, which protein stability index is on record?
Answer: 4.6

Question: For AGQEGEDTLRGRLLAPEAGSHPQQ, which protein stability index is on record?
Answer: 5.29

Question: For AGQEGEDTLRYRLLAPEAGSHPQQ, which protein stability index is on record?
Answer: 1.16

Question: With AGQEGEDTLRMRLLAPEAGSHPQQ as the variant, how does the protein stability index read?
Answer: 2.22

Question: With AGQEGEDTLRVRLLAPEAGSHPQQ as the variant, how does the protein stability index read?
Answer: 3.27

Question: With AGQEGEDTLRPRLLAPEAGSHPQQ as the variant, how does the protein stability index read?
Answer: 5.65

Question: Which protein stability index does the source give for AGQEGEDTLRNRLLAPEAGSHPQQ here?
Answer: 4.6

Question: For AGQEGEDTLRIRLLAPEAGSHPQQ, which protein stability index is on record?
Answer: 2.85

Question: For AGQEGEDTLRQRLLAPEAGSHPQQ, which protein stability index is on record?
Answer: 3.78

Question: Which protein stability index does the source give for AGQEGEDTLRHRLLAPEAGSHPQQ here?
Answer: 2.4

Question: With AGQEGEDTLRSRLLAPEAGSHPQQ as the variant, how does the protein stability index read?
Answer: 4.4

Question: Which protein stability index does the source give for AGQEGEDTLRRRLLAHEAGSHPQQ here?
Answer: 4.5

Question: With AGQEGEDTLRRRLLALEAGSHPQQ as the variant, how does the protein stability index read?
Answer: 5.32

Question: With AGQEGEDTLRRRLLAAEAGSHPQQ as the variant, how does the protein stability index read?
Answer: 5.48

Question: With AGQEGEDTLRRRLLADEAGSHPQQ as the variant, how does the protein stability index read?
Answer: 5.74

Question: With AGQEGEDTLRRRLLAKEAGSHPQQ as the variant, how does the protein stability index read?
Answer: 5.01

Question: For AGQEGEDTLRRRLLANEAGSHPQQ, which protein stability index is on record?
Answer: 5.24

Question: For AGQEGEDTLRRRLLATEAGSHPQQ, which protein stability index is on record?
Answer: 4.45

Question: For AGQEGEDTLRRRLLASEAGSHPQQ, which protein stability index is on record?
Answer: 5.43

Question: For AGQEGEDTLRRRLLAREAGSHPQQ, which protein stability index is on record?
Answer: 4.7

Question: For AGQEGEDTLRRRLLAYEAGSHPQQ, which protein stability index is on record?
Answer: 4.86

Question: For AGQEGEDTLRRRLLAWEAGSHPQQ, which protein stability index is on record?
Answer: 3.99

Question: With AGQEGEDTLRRRLLAEEAGSHPQQ as the variant, how does the protein stability index read?
Answer: 5.45

Question: Which protein stability index does the source give for AGQEGEDTLRRRLLAMEAGSHPQQ here?
Answer: 4.81

Question: With AGQEGEDTLRRRLLAQEAGSHPQQ as the variant, how does the protein stability index read?
Answer: 5.21

Question: With AGQEGEDTLRRRLLAIEAGSHPQQ as the variant, how does the protein stability index read?
Answer: 5.07

Question: For AGQEGEDTLRRRLLAVEAGSHPQQ, which protein stability index is on record?
Answer: 4.63

Question: For AGQEGEDTLRRRLLAFEAGSHPQQ, which protein stability index is on record?
Answer: 4.52

Question: For AGQEGEDTLRRRLLACEAGSHPQQ, which protein stability index is on record?
Answer: 4.47

Question: Which protein stability index does the source give for AGQEGEDTLRRRLLAGEAGSHPQQ here?
Answer: 5.51

Question: For AGQEGEDTLRRHLLAPEAGSHPQQ, which protein stability index is on record?
Answer: 3.29

Question: Which protein stability index does the source give for AGQEGEDTLRRGLLAPEAGSHPQQ here?
Answer: 4.97

Question: With AGQEGEDTLRRNLLAPEAGSHPQQ as the variant, how does the protein stability index read?
Answer: 3.89

Question: Which protein stability index does the source give for AGQEGEDTLRRYLLAPEAGSHPQQ here?
Answer: 2.3

Question: For AGQEGEDTLRRCLLAPEAGSHPQQ, which protein stability index is on record?
Answer: 2.51

Question: For AGQEGEDTLRRFLLAPEAGSHPQQ, which protein stability index is on record?
Answer: 1.83

Question: For AGQEGEDTLRRKLLAPEAGSHPQQ, which protein stability index is on record?
Answer: 3.55

Question: Which protein stability index does the source give for AGQEGEDTLRRMLLAPEAGSHPQQ here?
Answer: 1.8

Question: With AGQEGEDTLRRALLAPEAGSHPQQ as the variant, how does the protein stability index read?
Answer: 2.65

Question: For AGQEGEDTLRRELLAPEAGSHPQQ, which protein stability index is on record?
Answer: 4.75

Question: Which protein stability index does the source give for AGQEGEDTLRRILLAPEAGSHPQQ here?
Answer: 1.93

Question: With AGQEGEDTLRRTLLAPEAGSHPQQ as the variant, how does the protein stability index read?
Answer: 2.35

Question: With AGQEGEDTLRRDLLAPEAGSHPQQ as the variant, how does the protein stability index read?
Answer: 4.7

Question: Which protein stability index does the source give for AGQEGEDTLRRSLLAPEAGSHPQQ here?
Answer: 3.03

Question: With AGQEGEDTLRRLLLAPEAGSHPQQ as the variant, how does the protein stability index read?
Answer: 2.56

Question: For AGQEGEDTLRRVLLAPEAGSHPQQ, which protein stability index is on record?
Answer: 2.47

Question: With AGQEGEDTLRRPLLAPEAGSHPQQ as the variant, how does the protein stability index read?
Answer: 5.19

Question: Which protein stability index does the source give for AGQEGEDTLRRQLLAPEAGSHPQQ here?
Answer: 2.87

Question: With AGQEGEDTLRRRLLAPERGSHPQQ as the variant, how does the protein stability index read?
Answer: 2.87

Question: Which protein stability index does the source give for AGQEGEDTLRRRLLAPEWGSHPQQ here?
Answer: 2.21

Question: With AGQEGEDTLRRRLLAPEQGSHPQQ as the variant, how does the protein stability index read?
Answer: 3.35
